Assay results: patent publication US20240100176A1, “HUMAN INTERLEUKIN-4 RECEPTOR ALPHA ANTIBODY GLUCOCORTICOID CONJUGATES” (Eli Lilly and Company, priority 2022, published 2024)
Like-named read-outs stand apart in the source and are kept apart here.

Columns and labels:
[1] = target: human FcγRIIA_131R (CD32a) extracellular domain (human) (UniProt P12318); assay: SPR (Biacore), antibody captured on protein A, FcγR ECD as analyte, steady state, 25 °C
[2] = target: human FcγRIIIA_158V (CD16a) extracellular domain (human) (UniProt P08637); assay: as above
[3] = target: human FcγRIIb (CD32b) extracellular domain (human) (UniProt P31994); assay: as above
[4] = target: human FcγRIIA_131H (CD32a) extracellular domain (human) (UniProt P12318); assay: as above
[5] = target: human FcγRI (CD64) extracellular domain (human) (UniProt P12314); assay: SPR (Biacore), antibody captured on protein A, FcγR ECD as analyte, 25 °C
[6] = target: human FcγRIIIA_158F (CD16a) extracellular domain (human) (UniProt P08637); assay: SPR (Biacore), antibody captured on protein A, FcγR ECD as analyte, steady state, 25 °C
[7] = target: human FcγRI (CD64) extracellular domain (human) (UniProt P12314); assay: SPR (Biacore), antibody captured on protein A, FcγR ECD as analyte, 25 °C; remark: listed apart in the source
[8] = target: human FcγRIIA_131R (CD32a) extracellular domain (human) (UniProt P12318); assay: SPR (Biacore), antibody captured on protein A, FcγR ECD as analyte, steady state, 25 °C; remark: listed apart in the source
[9] = target: human FcγRIIIA_158F (CD16a) extracellular domain (human) (UniProt P08637); assay: as above; remark: listed apart in the source
[10] = target: human FcγRIIb (CD32b) extracellular domain (human) (UniProt P31994); assay: as above; remark: listed apart in the source
[11] = target: human FcγRIIA_131H (CD32a) extracellular domain (human) (UniProt P12318); assay: as above; remark: listed apart in the source

Chain of human FcγRIIA_131R (CD32a) extracellular domain (human) (P12318 34-217 H167R): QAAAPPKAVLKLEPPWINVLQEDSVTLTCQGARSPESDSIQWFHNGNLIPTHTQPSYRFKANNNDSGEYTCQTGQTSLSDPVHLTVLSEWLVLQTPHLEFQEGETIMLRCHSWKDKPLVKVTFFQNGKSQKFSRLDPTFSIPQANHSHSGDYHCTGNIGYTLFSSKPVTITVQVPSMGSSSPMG
Chain of human FcγRIIA_131H (CD32a) extracellular domain (human) (P12318 34-217): as the sequence (P12318 34-217 H167R) above, with R134H counted along it
Chain of human FcγRI (CD64) extracellular domain (human) (P12314 16-292): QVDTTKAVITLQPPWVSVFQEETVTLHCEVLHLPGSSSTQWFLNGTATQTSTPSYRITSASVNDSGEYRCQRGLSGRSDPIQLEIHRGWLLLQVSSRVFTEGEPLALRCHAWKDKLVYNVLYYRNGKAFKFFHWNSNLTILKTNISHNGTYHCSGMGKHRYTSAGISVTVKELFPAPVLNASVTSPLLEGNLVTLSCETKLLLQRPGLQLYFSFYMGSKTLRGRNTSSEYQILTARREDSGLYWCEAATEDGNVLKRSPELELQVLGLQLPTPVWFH
Chain of human FcγRIIb (CD32b) extracellular domain (human) (P31994 43-217): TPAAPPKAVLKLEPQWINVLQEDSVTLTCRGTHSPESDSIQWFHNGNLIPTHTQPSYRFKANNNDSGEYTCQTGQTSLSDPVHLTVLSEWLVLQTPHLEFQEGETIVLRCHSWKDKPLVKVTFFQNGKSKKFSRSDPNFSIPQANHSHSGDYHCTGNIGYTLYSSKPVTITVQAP
Chain of human FcγRIIIA_158F (CD16a) extracellular domain (human) (P08637 17-208): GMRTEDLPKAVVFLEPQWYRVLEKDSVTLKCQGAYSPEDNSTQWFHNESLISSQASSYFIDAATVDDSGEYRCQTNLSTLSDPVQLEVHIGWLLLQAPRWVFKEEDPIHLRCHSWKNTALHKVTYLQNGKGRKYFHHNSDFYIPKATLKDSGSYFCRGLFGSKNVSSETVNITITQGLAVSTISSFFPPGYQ
Chain of human FcγRIIIA_158V (CD16a) extracellular domain (human) (P08637 17-208 F176V): as the sequence (P08637 17-208) above, with F160V counted along it

Kd [1] [nM]	Kd [2] [nM]	Kd [3] [nM]	Kd [4] [nM]	Kd [5] [nM]	Kd [6] [nM]	Kd [7] [nM]	Kd [8] [nM]	Kd [9] [nM]	Kd [10] [nM]	Kd [11] [nM]	Substance
2310	7350	2780	5310	0.419	–	–	–	–	–	–	Hu IgG4 SP control (antibody)
740	–	3110	680	0.0521	1290	0.0559	760	910	3750	690	Hu IgG1 control (antibody)
